The values that follow come from paper PMC4118869 (PLoS ONE, 2014).

Sequences and labels used below:
B1: R1a-C5 (VHH)
VHH: QVQLVESGGGLVQPGGSLRLSCAASNDIFSFYTMGWYLQAIGKQREPVAVIGNGGNTNYAESVKGRFTISRDGAKNTAYLQMNSLKPEDTAVYYCMASGPGGLNVWGQGTQVTVSS
notes: source: E. coli WK6 periplasm, purified (Talon IMAC, Superdex 75 SEC)
B2: R1a-E5 (VHH)
VHH: QLQLVESGGGLVQPGGSLRLSCTASGFSLDNYAIGWFRRAPGEEREGVSFITSTSAVTKYADSVKGRFTISRDNAKNTVYLQMTSLKPEDTAVYYCAGTRWVPTMKADEYNYWGQGTQVTVSS
notes: as for B1
B3: R2a-B9 (VHH)
VHH: QVQLVESGGGLVQPGGSLRLSCAASGSAFSINAMGWYRQAPGEEREFVAAITAGGNTYYADSAKARFTISRDNAKNMLYLQMNSLKPEDTAMYYCAATKAFGIATITADYELWGQGTQVTVSS
notes: as for B1
B4: R2a-E8 (VHH)
VHH: QLQLVESGGGLVQPGGSLRLSCTASGDIFVMYMIDWYRQAPGKQRELVASIDGRGTPMYADSVKGRFTISRDNAKNTVYLQMNSLKPEDTAVYSCHAKSPLVDNEYWGQGTQVTVSS
notes: as for B1

One assay has as its target hemagglutinin of A/Brisbane/10/2007 (H3N2), in the influenza virus antigen standard (Influenza A virus A/Brisbane/10/2007 …, UniProt A8W8K8, strain). As to the kind of experiment: ELISA. The note with it: one partner purified.
Turning to B1, the binding result was “no binding”.
Turning to B2, the binding result was “no binding”.
The same measure, in the same setting: next, B3: “no binding”.
Still for that read-out and setting: next, B4: “no binding”.

For another assay, the target named is recombinant H1-HA (D18-I530), A/California/06/2009 (H1N1)pdm09 (Influenza A virus A/California/06/2009 …, UniProt C3W5S1, strain). Description: SPR. The note with it: both partners purified.
Take B1: the Kd stood at 37.6 nM, the koff came out at 0.0206 s⁻¹ and the kon worked out at 548000 M⁻¹ s⁻¹.
In the case of B2, the dissociation constant (Kd) turned out to be 0.79 nM, the koff was found to be 7.61e-05 s⁻¹ and the kon was 97600 M⁻¹ s⁻¹.
In the same order, the values of B3 are 0.16 nM, 4.94e-05 s⁻¹ and 312000 M⁻¹ s⁻¹.
As to B4, the Kd was 0.79 nM, the koff was found to be 0.000148 s⁻¹ and the kon is 187000 M⁻¹ s⁻¹.

The next assay concerns the target recombinant H5-HA, A/Vietnam/1203/2004 (H5N1) (Influenza A virus A/Vietnam/1203/2004 …, UniProt Q5EP31, strain). As to the kind of experiment: SPR. The note with it: both partners purified.
B2: the binding result was “no binding”.
Still for that read-out and setting: next, B3: “no binding”; B4: “no binding”.

A further assay deals with T1, recombinant H2-HA, A/Japan/305/57 (H2N2) (Influenza A virus A/Japan/305/1957 …, UniProt P03451, strain).
T1 construct: source: bought: E-Enzymes (Protein Sciences in the SPR methods)
Description: SPR. The note with it: both partners purified.
B2: the binding result is listed as “no binding”.
In the case of B3, the binding result is “no binding”.
On the same count and under the same terms, with B4 the entry was “no binding”.

A further assay concerns the target recombinant H9-HA, A/HongKong/1073/99 (H9N2) (Influenza A virus A/Hong Kong/1073/99 …, UniProt Q9ICY5, strain). Description: SPR. Particulars: both partners purified.
For B2, the binding result is given as “no binding”.
On the same count and under the same terms, next, B3: “no binding”; B4: “no binding”.

The target in another assay is recombinant HA1 domain (D18-R344), A/California/06/2009 (H1N1)pdm09 (Influenza A virus A/California/06/2009 …, UniProt C3W5S1, strain). As to the kind of experiment: SPR. Particulars: both partners purified.
Consider B1, for which the Kd was determined as 38.4 nM.

For a further assay, the target named is hemagglutinin of A/California/07/2009 (H1N1)pdm09, in the influenza virus antigen standard (Influenza A virus A/California/07/2009 …, UniProt C3W5X2, strain). Description: ELISA. Particulars: one partner purified.
As to B1, the binding result was “binds”.
On the same count and under the same terms, next, B2: “binds”.
The same measure, in the same setting: with B3 the entry was “binds”.
Same read-out and setting: next, B4: “binds”.

The target in the next assay is phage displayed HA gene fragment P66-I282 (Influenza A virus A/California/07/2009 …, UniProt C3W5X2). As to the kind of experiment: ELISA. Particulars: both partners purified.
As to B1, the binding result is “binds”.
The same measure, in the same setting: next, B2: “no binding”; B3: “no binding”; B4: “no binding”.

In the next assay the target is phage displayed HA gene fragment L193-K225 (Influenza A virus A/California/07/2009 …, UniProt C3W5X2). As to the kind of experiment: ELISA. The note with it: both partners purified.
As to B1, the binding result is “binds”.
The same measure, in the same setting: with B2 the entry was “no binding”.
Still for that read-out and setting: with B3 the entry was “no binding”; with B4, “no binding”.

Another assay addresses phage displayed HA gene fragment D363-G478 (Influenza A virus A/California/07/2009 …, UniProt C3W5X2). Description: ELISA. Particulars: both partners purified.
With B2, the binding result is on record as “no binding”.
In the case of B3, the binding result is “no binding”.
The same measure, in the same setting: next, B4: “no binding”.

In a further assay the target is T2, recombinant H3-HA, A/Brisbane/10/2007 (H3N2) (Influenza A virus A/Brisbane/10/2007 …, UniProt A8W8K8, strain).
T2 construct: source: bought: Protein Sciences
Description: SPR; data not shown: sdAbs on immobilised recombinant H3-HA and H7-HA. The note with it: both partners purified.
Take B1: the binding result is given as “no binding”.
Still for that read-out and setting: with B2 the entry was “no binding”; with B3, “no binding”.
Turning to B4, the binding result is recorded as “no binding”.

A further assay concerns the target T3, recombinant H7-HA, A/Netherlands/219/2003 (H7N7) (Influenza A virus …, UniProt Q6VMK1).
T3 construct: source: bought: Protein Sciences
The description is as above. The note with it: both partners purified.
Turning to B1, the binding result was “no binding”.
Regarding B2, the binding result is “no binding”.
Regarding B3, the binding result is reported as “no binding”.
Turning to B4, the binding result is recorded as “no binding”.
